Test results as given in paper PMC10923291, “Quantitative description of the phase-separation behavior of the multivalent SLP65–CIN85 complex” (PNAS Nexus, 2024).
Changes are numbered by the printed parent chain.

T1: CIN85-ABC (UniProt Q96B97 1-333)
T1 construct: also called CIN85_(1-333); wildtype-like CIN85-ABC construct
T1 sequence (looked up): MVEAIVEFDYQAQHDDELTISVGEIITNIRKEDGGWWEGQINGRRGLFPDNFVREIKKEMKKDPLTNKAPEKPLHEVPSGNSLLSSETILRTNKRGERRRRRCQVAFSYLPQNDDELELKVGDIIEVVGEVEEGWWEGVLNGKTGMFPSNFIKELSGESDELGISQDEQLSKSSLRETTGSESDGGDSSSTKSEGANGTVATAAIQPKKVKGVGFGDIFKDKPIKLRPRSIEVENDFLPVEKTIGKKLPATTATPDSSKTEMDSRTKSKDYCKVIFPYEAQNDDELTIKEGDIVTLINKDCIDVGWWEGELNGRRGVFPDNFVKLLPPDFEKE

B1: SLP65_(1-330) (domain or fragment, UniProt Q8WV28 1-330, looked up)
chain: MDKLNKITVPASQKLRQLQKMVHDIKNNEGGIMNKIKKLKVKAPPSVPRRDYASESPADEEEQWSDDFDSDYENPDEHSDSEMYVMPAEENADDSYEPPPVEQETRPVHPALPFARGEYIDNRSSQRHSPPFSKTLPSKPSWPSEKARLTSTLPALTALQKPQVPPKPKGLLEDEADYVVPVEDNDENYIHPTESSSPPPEKAPMVNRSTKPNSSTPASPPGTASGRNSGAWETKSPPPAAPSPLPRAGKKPTTPLKTTPVASQQNASSVCEEKPIPAERHRGSSHRQEAVQSPVFPPAQKQIHQKPIPLPRFTEGGNPTVDGPLPSFSS
notes: Src homology 2 domain-containing leukocyte protein of 65 kDa (SLP65, BLNK), shortened at the C-terminus, residues 1-330, lacks the C-terminal SH2 domain; also called Wildtype SLP65_(1-330); BLNK
B2: CIN85-BBB (domain or fragment)
chain: RRRRRCQVAFSYLPQNDDELELKVGDIIEVVGEVEEGWWEGVLNGKTGMFPSNFIKELSGEMKKDPLTNKAPEKPLHEVPSGNSLLSSETILRTNKRGERRRRRCQVAFSYLPQNDDELELKVGDIIEVVGEVEEGWWEGVLNGKTGMFPSNFIKELSGESDELGISQDEQLSKSSLRETTGSESDGGDSSSTKSEGANGTVATAAIQPKKVKGVGFGDIFKDKPIKLRPRSIEVENDFLPVEKTIGKKLPATTATPDSSKTEMDSRTRRRRRCQVAFSYLPQNDDELELKVGDIIEVVGEVEEGWWEGVLNGKTGMFPSNFIKELSGDFEKE
B3: SLP65-R247A (domain or fragment, UniProt Q8WV28 1-330, looked up)
chain: B1 chain with R247A
notes: the C-terminally shortened version (1-330) was used for measurements
B4: SLP65-3xPRM4 (domain or fragment)
chain: B1 chain with I276S, A278L, E279P, I308S
modifications: 1-330 is printed; the text says PRMs are six residues long. The swapped limits are assumed: PRM5 275-280 and PRM6 307-312, each replaced by PRM4 242-247. Partly Atto430LS-labelled for microscopy.

Legend:
Test in all cases: ITC; multivalent SLP65 constructs with multivalent CIN85 constructs (global KD); conditions in the SI Appendix
Conditions in all cases: both partners purified
CIN85-ABC = target: T1, CIN85-ABC
SLP65_(1-330) = target: B1
CIN85-BBB = target: B2

| Kd (CIN85-ABC) | Kd (SLP65_(1-330)) | Kd (CIN85-BBB) | Binder |
| --- | --- | --- | --- |
| 1360 ± 170 nM |  |  | B1 |
|  | 700 ± 250 nM |  | B2 |
| 7040 ± 1120 nM |  |  | B3 |
| 240 ± 10 nM |  | 140 ± 60 nM | B4 |
